Legend:
GST-Egl512-819 [1] = target: T1, GST-Egl512-819 (Drosophila melanogaster, UniProt Q9W1K4 512-819); experiment: fluorescence anisotropy; FA: 20 mM HEPES-NaOH pH 7.5, 100 mM NaCl, 10% glycerol, 20 C, 10 nM FAM-RNA; competition: 150 nM Egl512-819 + 10 nM FAM-K10 TLS, same buffer; details: protein: recombinant, tags: N-terminal GST (TEV site)
T1 sequence: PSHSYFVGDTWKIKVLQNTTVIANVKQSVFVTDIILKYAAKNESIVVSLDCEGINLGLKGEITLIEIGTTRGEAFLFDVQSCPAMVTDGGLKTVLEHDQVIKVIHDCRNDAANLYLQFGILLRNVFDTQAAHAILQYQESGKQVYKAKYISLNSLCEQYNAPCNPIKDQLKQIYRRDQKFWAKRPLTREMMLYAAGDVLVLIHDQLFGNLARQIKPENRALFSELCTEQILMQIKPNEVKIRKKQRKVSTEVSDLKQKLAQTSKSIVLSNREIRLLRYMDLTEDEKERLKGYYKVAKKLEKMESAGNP

GST-Egl512-819 [2] = target: T1, GST-Egl512-819; experiment: competition; vs FAM-K10 TLS; FA: 20 mM HEPES-NaOH pH 7.5, 100 mM NaCl, 10% glycerol, 20 C, 10 nM FAM-RNA; competition: 150 nM Egl512-819 + 10 nM FAM-K10 TLS, same buffer; details: protein: recombinant, tags: N-terminal GST (TEV site)
GST-Egl512-819 [3] = target: T1, GST-Egl512-819; experiment: fluorescence anisotropy; listed as K10-10nt; FA: 20 mM HEPES-NaOH pH 7.5, 100 mM NaCl, 10% glycerol, 20 C, 10 nM FAM-RNA; competition: 150 nM Egl512-819 + 10 nM FAM-K10 TLS, same buffer; details: protein: recombinant; tags: N-terminal GST (TEV site); label: 5'-FAM in direct assay; hairpin, 3' overhang 10 nt
GST-Egl512-819 [4] = target: T1, GST-Egl512-819; experiment: competition; vs FAM-K10 TLS; none at 40,000-fold excess; FA: 20 mM HEPES-NaOH pH 7.5, 100 mM NaCl, 10% glycerol, 20 C, 10 nM FAM-RNA; competition: 150 nM Egl512-819 + 10 nM FAM-K10 TLS, same buffer; details: protein: recombinant; tags: N-terminal GST (TEV site)
[5] = label: 5'-FAM in direct assay, hairpin

B1: K10-Delta b1b2 (structured_RNA)
RNA: CUUGAUUGUAUUUUUAAAUUAAUUCUUAAAAAUACAAUUAAG
B1 showed a Kd (GST-Egl512-819 [1]; [5]) of 172 ± 18 nM.

B2: ssRNA (U20) (ssRNA)
RNA: UUUUUUUUUUUUUUUUUUUU
B2 showed a Kd (GST-Egl512-819 [1]; label: 5'-FAM) of 175 ± 3 nM.

B3: dsDNA (dsDNA)
DNA 1: AGGCAGTTTCTGGTACTCAG
DNA 2: CTGAGTACCAGAAACTGCCT
For B3, the IC50 (GST-Egl512-819 [2]; blunt) was 8890 ± 933 nM.

B4: K10 TLS (unlabeled) (structured_RNA)
RNA: CUUGAUUGUAUUUUUAAAUUAAUUCUUAAAAACUACAAAUUAAG
Work on B4 yielded an IC50 (GST-Egl512-819 [2]; hairpin with two bulges) of 53 ± 4 nM.

B5: K10-AU (structured_RNA)
RNA: AUUGAUUGUAUUUUUAAAUUAAUUCUUAAAAACUACAAAUUAAU
Binder B5 has an IC50 (GST-Egl512-819 [2]; hairpin) of 67 ± 4 nM.

B6: dsRNA (dsRNA)
RNA 1: UGAGUGCCAGAAGCUGCCUC
RNA 2: GAGGCAGCUUCUGGCACUCA
Binder B6 has a Kd (GST-Egl512-819 [1]; blunt) of 192 ± 7 nM.

B7: K10-flank (K10-10nt) (structured_RNA)
RNA: CUUGAUUGUAUUUUUAAAUUAAUUCUUAAAAACUACAAAUUAAGAUCACUCUGU
Work on B7 yielded a Kd (GST-Egl512-819 [3]) of 92 ± 13 nM and an IC50 (GST-Egl512-819 [2]; label: 5'-FAM in direct assay, hairpin, 3' overhang 10 nt) of 53 ± 2 nM.

B8: K10-b1as (structured_RNA)
RNA: CUUGAUUGUACUUUUUAAAUUAAUUCUUAAAAAUACAAAUUAAG
Work on B8 yielded an IC50 (GST-Egl512-819 [2]; hairpin) of 63 ± 1 nM.

B9: K10-b1as-AU (structured_RNA)
RNA: AUUGAUUGUACUUUUUAAAUUAAUUCUUAAAAAUACAAAUUAAU
For B9, the IC50 (GST-Egl512-819 [2]; hairpin) was 87 ± 8 nM.

B10: ssRNA (AU20) (ssRNA)
RNA: AUAUAUAUAUAUAUAUAUAU
With B10 the Kd (GST-Egl512-819 [1]; label: 5'-FAM) was 137 ± 8 nM.

B11: ARF1 dsRNA (dsRNA)
RNA 1: UGAGUGCCAGAAGCUGCCUC
RNA 2: GAGGCAGUUUCUGGUACUCA
With B11 the IC50 (GST-Egl512-819 [2]; blunt, with G-U wobbles) was 102 ± 14 nM.

B12: bcd_VbS (structured_RNA)
RNA: AAAUGUUUCUCUUGGGCGUAAUCUCAUACAAUGAUUACCCUUAAAGAUCGAACAUUU
B12 was tested, and the Kd (GST-Egl512-819 [1]; label: 5'-FAM, hairpin) was 158 ± 8 nM.

B13: K10-2GC (structured_RNA)
RNA: GGCUUGAUUGUAUUUUUAAAUUAAUUCUUAAAAACUACAAAUUAAGCC
With B13 the IC50 (GST-Egl512-819 [2]; hairpin with two bulges) was 57 ± 6 nM.

B14: K10-as (structured_RNA)
RNA: GAAUUAAACAUCAAAAAUUCUUAAUUAAAUUUUUAUGUUAGUUC
Binder B14 has a Kd (GST-Egl512-819 [1]; [5]) of 102 ± 6 nM.

B15: ssDNA (ssDNA)
DNA: AGGCAGTTTCTGGTACTCAG
B15: no binding (GST-Egl512-819 [4]).

B16: bcd_VbL (structured_RNA)
RNA: GGGCCCAAAAUGAAAAAUGUUUCUCUUGGGCGUAAUCUCAUACAAUGAUUACCCUUAAAGAUCGAACAUUUAAACAAUAAUAUUUGGG
In the case of B16, the Kd (GST-Egl512-819 [1]; [5]) is reported as 123 ± 13 nM and the IC50 (GST-Egl512-819 [2]; [5]) is reported as 31 ± 5 nM.

B17: MS2 stem loop (structured_RNA)
RNA: ACAUGAGGAUUACCCAUGU
Work on B17 yielded an IC50 (GST-Egl512-819 [2]; hairpin) of 142 ± 13 nM.
